Data as given in PMC13601591 (Nature Communications, 2026).

Target: the molecule itself
Experiment: SDS-resistant oligomer on SDS-PAGE and immunoblot

B1: fh1-HAP2-HA (HAP2 with W173A and F177A mutations in the fusion loop) (natural protein, Chlamydomonas reinhardtii, UniProt A4GRC6 23-1139, looked up)
chain: EVIASGRLEKCVVDGVTEELDCQEKVVVTLTVGNGQSLQTEALEFSLSCLNSPDGRCPCSCSAADPTCACRDLAAPLRVSLTKSPLWASYPLQYLSSFNWKPLEVILRPSNKVCKDGDWEDSPTCGWFSQGGVRVADSQGFCCECSSSQVADDTAGSSKERTRANLDCDFWSDPLDILIGRKPVSAHCLTFDPQWYSGYELGAASLQFEIAITVEVPTAPSPTTATTSATPRTNNSSSANSTNSTNSPAPQFLSPPAPSTREVLHLGPSVPLASSASRLLSAKLLGDLAMYTQLPAISNQVLMVPQPPAAAAATGSPLDATLATNRSAWMLLDKTMLSMDGLACDKVGTGFSAFRYQPSGCGRAPQACLSGQLKDLWEADLARIADGRVPLYMITRFTGGSDTTLQSFSGGPLSFALPVTSHSQSLVTLSVAADGVRLVTNRSPGKITGAAVCRFAGTSCGGFEAVAARGYIYVNITNTGRLDSDYTLTVSNCSSNVRPIEARTLAVRAGSAASLDPPMELYVEDQAAAAARTCTVSLYDSVGAVTDSLTLSFYTNATQLVVKPSGGYNGTGDGAGVKRNGTDCSTACTNPIDVLCFVTKKCWSKFGRLLGIIGGALVGLGLLAVALKFGWLASLAASCCGGGGGAAAGGAGGGMGLGTGGGGGCFGGGQQQQQLPPAASHAMSPPQQQQRSHAEVAAGAAVAGAGAAGAAAAVLGAKHGGGGGGARGKQQHADTRHLQDRDSRAIDGGASIGSSSAGGSSSLSSYSQPREAGGRLLQPPAAAVFVPEGGGGGAAGDEGARAQSSDWDARGRSPRVADEHGSPRQRYDGVRQSPYMVSANPYDGWYDGGSGGGGGGGGGGYGREAPPPQGPPPHPVGAPPPPPRRRSLWERMWLQRPGGGGGGGGGGGGGGGGGSGGGVDQHGGRSCADAARRGGGGPGGMRGVEGLMSNGGRPNGPHPHAPPPPPPPQQQQQQQRQRRSFLESLTAMMTLPWGGGREEEAGGDRRGGGRGGAAAAHGGRGAGGGRGHPPSIGSPPPGPLQPPEYGPQGGQARRWGAGGGRGGVGGDGGGGGVGAAAYVQLSTGGRGGGGGGGRGRGGGREGPTWHNPVYDWQAPPK
- stoichiometry N: 3
